Source: patent US5786145A, “Oligonucleotide competitors for binding of HIV RRE to REV protein and assays for screening inhibitors of this binding” (Medical Research Council, priority 1995, dated 1998)
Residue numbers refer to the chain shown, from its start. “Also recorded” adds a separate entry of the source.

Legend:
rev protein [1] = assay: Competition filter binding against 32P-labelled R7 (FIGS. 13, 17); parameters: species or system HIV-1; conditions: 1.5 nM labelled R7, 24 nM rev, 0-60 nM competitor
Procedure: In these experiments, uniformly ^32 P-labelled R7 (1.5 nM) was competed against 0-60 nM unlabelled competitor RNA in the presence of 24 nM rev protein.
The mixtures for competition binding (0.5 ml) included 1.5 nM ^32 P-labelled R7 (ca. 20,000 cpm), 24 nM rev protein, 1.5 ug/ml calf thymus DNA, 0.67 ug/ml yeast rRNA, varying concentrations (0-60 nM) of unlabelled competitor RNA and 80 units/ml RNasin in TK buffer (50 mM Tris-HCl (pH7.9) and 20 mM KCl). Binding was allowed to take place for more than 15 min on ice, and each mixture was passed through a Millipore GS filter (a 2.5 cm disk with a pore size of 0.22 um) prewashed twice with 0.6 ml of ice-cold TK buffer. The filter was washed with 0.6 ml of cold TK buffer and dried. The radioactivity retained on the filter was counted by liquid scintillation, and the results were plotted on a graph (FIG. 13).

rev protein [2] = assay: Saturation filter binding of rev to labelled RNA transcripts; parameters: species or system HIV-1; conditions: for % RNA bound (10 nM rev): Table I, 50 mM KCl; for rev binding, result in words: saturation filter binding, 0 to 10 nM rev; for Kd: saturation filter binding of T7 transcripts, read-out: Kd for rev binding
Procedure: Rev protein was expressed and purified as described (33) or further purified by chromatography on Heparin-Sepharose. Rev was applied to Heparin columns in a buffer containing 200 mM NaCl/50mM Tris-HCl pH8.0/1 mM DTT/0.1 mM EDTA 0.1% Triton X-100 and eluted in buffer containing 2M NaCl. After gel filtration on Superose 6 (prep grade) columns equilibrated with 200 mM NaCl/50 mM Tris-HCl pH8.0/1 mM DTT/0.1 mM EDTA, the rev protein appeared homogeneous on SDS-polyacrylamide gels and free of RNA contaminants. Rev concentrations were determined by amino acid analysis of the purified protein.
DNA inserts containing RRE-related sequences were cloned between the EcoRI (5') and HindIII (3') sites of pGEM 1, either by cloning PCR products or by cloning annealed pairs of synthetic oligonucleotides. RNA transcripts for binding experiments were prepared by transcription of HindIII cut plasmids using T7 RNA polymerase and purified by gel electrophoresis. These transcripts carry a 5' extension of 15 nucleotides contributed by the vector and an extra A residue at the 3' end from the HindIII site, as described above.
For filter binding assays, each reaction mixture contained 20 pg of uniformly labelled RNA probe (approximately 500 cpm/pg RNA), […] sonicated salmon sperm DNA, […] yeast tRNA, 40 units RNasin (Promega) in […] TK buffer (43 mM Tris-HCl pH8.0, 50 mM KCl). Incubation was at 4° C. for 15 minutes in the presence of 0 to 10 nM purified rev protein. To measure binding, each reaction mixture was applied under gentle vacuum to a 0.45 um Millipore filter which had been pre-wetted with TK buffer. The filters were washed with […] TK buffer, dried, and radioactivity counted by liquid scintillation.
Filter binding assays contained 20 pg uniformly labelled RNA probe (500 dpm per pg RNA), 1 μg salmon sperm DNA, 0.45 μg yeast tRNA and 40 units RNasin (Promega) in 500 μl buffer containing 43 mM Tris-HCl pH 8.0, 50 mM KCl. Mutations in the purine-rich "bubble" sequence (numbered as shown in FIG. 2) were introduced into the R33 stem-loop structure (FIG. 3d) by site-directed mutagenesis.

HIV-1 Rev [3] = molecular target: T1, HIV-1 Rev (Human immunodeficiency virus 1, UniProt P04618 P04618:1-116); assay: filter; non-specific binding only; conditions: tags: none stated, heparin-Sepharose and Superose 6 purified, chain copies: oligomer (tetramer likely; about 4 per RBC6, 6-8 per full-length RRE at 50 mM KCl) stated, label: 32P uniform
HIV-1 Rev [4] = molecular target: T1, HIV-1 Rev; assay: competition; D1/2 vs labelled RRE RNA, 17 nM rev; conditions: tags: none stated; heparin-Sepharose and Superose 6 purified; chain copies: oligomer (tetramer likely; about 4 per RBC6, 6-8 per full-length RRE at 50 mM KCl) stated; label: 32P uniform; stem-loop with altered bubble

## TWJ-C: three annealed synthetic oligoribonucleotides forming bubble stabilized by three-way junction; U85 replaced by C (chain 1 GCACUAUGGGCGCAGC; chain 2 GCUGCGGUACAGGCCAGA; chain 3 UCUGGCAUAGUGC; RNA, backbone not given here)
Rev protein [1]
  competition for rev binding against labelled R7, result in words: compete for rev binding with the same affinity

## R36 (GGGAGACCGGAAUUCUGGGCGCAGUGUCAUUGACGCUGCGCAGAAUUCCGGCA; chemistry not given here)
Rev protein [2]
  % RNA bound (10 nM rev): 4%
  rev binding, result in words: loss of rev binding

## TWJ-U: three annealed synthetic oligoribonucleotides forming three-way junction; authentic HIV-1ARV2 sequence with G:U base pair (chain 1 GCACUAUGGGCGCAGC; chain 2 GCUGCGGUACAGGCCAGA; chain 3 UCUGGUAUAGUGC; RNA, backbone not given here)
Rev protein [1]
  competition for rev binding against labelled R7, result in words: compete for rev binding with the same affinity

## R38: stem-loop structure C39 to A56 replaced by the stable loop sequence CUUCGG (GGGAGACCGGAAUUCUGGGCGCUUCGGCGGUACAGA; chemistry not given here)
Rev protein [2]
  Kd: 1 to 3 nM

## RBC4: chemically synthesized RNA duplex, purine-rich bubble with 4 base pairs in the stem on each side (chain 1 UGUGGGCGCA; chain 2 UGCGGUACAC; RNA, backbone not given here)
Rev protein [1]
  competition for rev binding against labelled R7, result in words: no competitive binding abilities

## R30: base pairing in the upper stem structure altered to give the anti-sense sequence (GGGAGACCGGAAUUCUGGGCGCAGCGUCAUUGACACUGCGGUACAGGCA; chemistry not given here)
Rev protein [2]
  rev binding, result in words: normal rev binding activity

## RBC5: chemically synthesized RNA duplex, purine-rich bubble with 5 base pairs on each side (chain 1 GUGUGGGCGCAG; chain 2 CUGCGGUACACA; RNA, backbone not given here)
Rev protein [1]
  competition for rev binding against labelled R7, result in words: less

## R22: residue A56 is deleted from R20 (GGGAGACCGGAAUUCUGGGCGCAGUGUCAUUGACGCUGCGGUACAGGCA; chemistry not given here)
Rev protein [2]
  Kd: 1 to 3 nM

## R37 (GGGAGACCGGAAUUCUAAACGCAGUGUCAUUGACGCUGCGGUAUAGAAUUCCGGCA; chemistry not given here)
Rev protein [2]
  % RNA bound (10 nM rev): 5%
  rev binding, result in words: abolished specific rev binding

## RBC2-6X: only two oligonucleotides annealed, containing all sequences from the bubble region (chain 1 GCACUAUGGGCGCAGC; chain 2 GCUGCGGUACAGGCCAGA; chemistry not given here)
Rev protein [1]
  competition for rev binding against labelled R7, result in words: not sufficiently stable to form an effective rev binding site
Rev protein [1]; listed as RBC2,6X
  competition for rev binding against labelled R7, result in words: unable to compete effectively

## R19: transcript containing RRE sequences 33 to 66 (GGGAGACCGGAAUUCUGGGCGCAGUGUCAUUGACGCUGACGGUACAGGCA; unmodified RNA)
Rev protein [2]
  Kd: 1 to 3 nM

## R29: residues altered in the apex of the loop to give the anti-sense sequence (GGGAGACCGGAAUUCUGGGCGCAGUGUCAAUGACGCUGACGGUACAGGCA; chemistry not given here)
Rev protein [2]
  rev binding, result in words: normal rev binding activity

B1: 1-96: RRE fragment 1-96 T7 transcript (nucleic acid)
chain: GGGAGACCGGAAUUCCCUUGGGUUCUUGGGAGCAGCAGGAAGCACUAUGGGCGCAGUGUCAUUGACGCUGACGGUACAGGCCAGACAAUUAUUGUCUGGUAUAGUGCAACA
modifications: unmodified RNA
notes: RRE fragment 1-96 T7 transcript
Rev protein [2]
  rev binding, result in words: same affinity as the full-length RRE sequence

B2: R36 (dG59-A61) (ssRNA)
RNA: GGGAGACCGGAAUUCUGGGCGCAGUGUCAUUGACGCUGCGCAGAAUUCCGGCA
HIV-1 Rev [3]; stem-loop with G,G bulge
  binding signal: 4 % RNA bound at 10 nM rev

B3: R34 (dG35-G36) (ssRNA)
RNA: GGGAGACCGGAAUUCUGCGCAGUGUCAUUGACGCUGCGGUACAGAAUUCCGGC
HIV-1 Rev [3]; stem-loop with altered bubble
  binding signal: 3 % RNA bound at 10 nM rev
HIV-1 Rev [4]
  IC50: > 250 nM

B4: 26-72: RRE fragment 26-72 T7 transcript (nucleic acid)
chain: GGGAGACCGGAAUUCAGCACUAGGGCGCAGUGUCAUUGACGCUGAGGGUACAGGCCAGACAAUUAUA
modifications: unmodified RNA
notes: RRE fragment 26-72 T7 transcript
Rev protein [2]
  rev binding, result in words: does not bind rev

B5: R49 (ssRNA)
RNA: GGGAGACCGGAAUUCUGGGCGCAGUGUCAUUGACGCUGCGUACAGAAUUCCGGCA
modifications: [none]
HIV-1 Rev [3]
  binding signal: 2 % RNA bound at 10 nM rev

B6: R46 (ssRNA)
RNA: B5 RNA with U41G, A42U
modifications: [none]
HIV-1 Rev [3]
  binding signal: 1 % RNA bound at 10 nM rev

B7: R45 (ssRNA)
RNA: B5 RNA with U41G
modifications: [none]
HIV-1 Rev [3]
  binding signal: 6 % RNA bound at 10 nM rev

B8: R58 (ssRNA)
RNA: GGGAGACCGGAAUUCUGGGCGCAGUGUCAUUGACGCUGCGAUACAGAAUUCCGGCA
modifications: [none]
HIV-1 Rev [3]
  binding signal: 6 % RNA bound at 10 nM rev

B9: R40 (ssRNA)
RNA: B8 RNA with G17C, A41G, C44G
modifications: [none]
HIV-1 Rev [3]
  binding signal: 3 % RNA bound at 10 nM rev

B10: R56 (ssRNA)
RNA: B8 RNA with C20U, G40A, A41G
modifications: [none]
HIV-1 Rev [3]
  binding signal: 6 % RNA bound at 10 nM rev

B11: R47 (ssRNA)
RNA: B8 RNA with G18A, A41G
modifications: [none]
HIV-1 Rev [3]
  binding signal: 6 % RNA bound at 10 nM rev

B12: R53 (ssRNA)
RNA: B8 RNA with A41G, A43G
modifications: [none]
HIV-1 Rev [3]
  binding signal: 5 % RNA bound at 10 nM rev

B13: R37 (ssRNA)
RNA: B8 RNA with G17A, G18A, G19A, A41G, C44U
HIV-1 Rev [3]; stem-loop with altered bubble
  binding signal: 5 % RNA bound at 10 nM rev

B14: R41 (ssRNA)
RNA: B8 RNA with C20G, G40C, A41G
modifications: [none]
HIV-1 Rev [3]
  binding signal: 2 % RNA bound at 10 nM rev

B15: 26-92: RRE fragment 26-92 T7 transcript (nucleic acid)
chain: GGGAGACCGGAAUUCAGCACUAUGGGCGCAGUGUCAUUGACGCUGACGGUACAGGCCAGACAAUUAUUGUCUGGUAUAGUGCA
modifications: unmodified RNA
notes: RRE fragment 26-92 T7 transcript
Rev protein [2]
  rev binding, result in words: same affinity as the full-length RRE sequence; also recorded: Identical binding behaviour
